Here are results for 2 molecules from patent US20210101970A1 (Pfizer, published 2021).

In one assay the target is T1, rat CXCR5 ortholog (rat, UniProt P34997 1-374).
T1 sequence (looked up): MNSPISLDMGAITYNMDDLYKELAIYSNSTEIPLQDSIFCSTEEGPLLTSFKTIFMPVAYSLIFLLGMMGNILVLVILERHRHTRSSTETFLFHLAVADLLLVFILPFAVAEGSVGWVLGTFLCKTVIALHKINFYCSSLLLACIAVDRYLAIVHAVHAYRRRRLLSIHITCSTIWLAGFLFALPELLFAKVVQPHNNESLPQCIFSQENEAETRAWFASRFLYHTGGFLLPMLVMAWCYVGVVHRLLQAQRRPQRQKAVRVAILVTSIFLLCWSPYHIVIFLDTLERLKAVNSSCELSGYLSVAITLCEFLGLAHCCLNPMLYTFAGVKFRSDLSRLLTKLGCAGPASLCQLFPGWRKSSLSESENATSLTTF
Briefly: not described.

The target in another assay is T2, rabbit CXCR5 ortholog (rabbit, UniProt G1TNG1 1-374).
T2 sequence: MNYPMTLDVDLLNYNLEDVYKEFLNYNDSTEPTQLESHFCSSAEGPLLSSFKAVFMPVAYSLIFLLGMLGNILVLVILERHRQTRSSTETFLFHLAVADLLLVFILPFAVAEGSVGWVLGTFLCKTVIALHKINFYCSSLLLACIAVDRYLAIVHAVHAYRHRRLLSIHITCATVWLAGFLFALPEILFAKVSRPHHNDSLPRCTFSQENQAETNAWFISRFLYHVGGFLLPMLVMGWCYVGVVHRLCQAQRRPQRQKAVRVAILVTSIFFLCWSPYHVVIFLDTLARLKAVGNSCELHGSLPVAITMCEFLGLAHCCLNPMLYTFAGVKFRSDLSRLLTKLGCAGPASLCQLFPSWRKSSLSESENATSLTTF
The assay is described as follows: not described.

The next assay addresses T3, human CXCR5 (human, UniProt P32302 1-372).
T3 sequence: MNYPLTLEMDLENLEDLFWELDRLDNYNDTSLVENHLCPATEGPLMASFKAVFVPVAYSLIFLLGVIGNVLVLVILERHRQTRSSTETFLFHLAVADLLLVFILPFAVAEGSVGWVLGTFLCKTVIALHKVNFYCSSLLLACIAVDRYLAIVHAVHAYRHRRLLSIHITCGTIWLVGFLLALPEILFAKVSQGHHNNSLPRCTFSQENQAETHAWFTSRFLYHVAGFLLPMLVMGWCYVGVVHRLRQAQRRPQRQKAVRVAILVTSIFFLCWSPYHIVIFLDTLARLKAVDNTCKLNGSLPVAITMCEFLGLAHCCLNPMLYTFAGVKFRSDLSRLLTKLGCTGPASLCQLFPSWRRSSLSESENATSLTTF
Briefly: cell-based or functional assay.

For the next assay, the target named is T4, XC281 (human, UniProt P32302 2-372).
T4 construct: also called hCXCR5 D22A
T4 sequence: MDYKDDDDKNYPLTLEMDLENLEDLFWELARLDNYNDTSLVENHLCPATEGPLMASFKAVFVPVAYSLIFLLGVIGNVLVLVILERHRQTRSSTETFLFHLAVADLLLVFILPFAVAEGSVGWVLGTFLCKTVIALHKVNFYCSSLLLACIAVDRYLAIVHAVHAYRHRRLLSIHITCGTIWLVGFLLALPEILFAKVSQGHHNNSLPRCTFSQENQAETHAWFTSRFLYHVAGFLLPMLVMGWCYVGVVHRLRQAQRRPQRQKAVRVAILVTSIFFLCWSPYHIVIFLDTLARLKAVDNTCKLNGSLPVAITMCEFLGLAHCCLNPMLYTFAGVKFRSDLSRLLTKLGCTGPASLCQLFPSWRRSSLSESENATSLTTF
The assay is described as follows: flow cytometry on HEK-293T cells transiently expressing the FLAG-tagged mutein; ratio of gMFI of the antibody to gMFI of anti-FLAG PE. How it is done:
(§1) The cells were analyzed by flow cytometry using an Accuri (BD Biosciences Franklin Lakes, N.J.). The geometric mean fluorescence intensity (gMFI) was determined and the ratio for the gMFI of each CXCR5 antibody and anti-flag was calculated.

The target in the next assay is T5, XC276 (human, UniProt P32302 2-372).
T5 construct: also called hCXCR5 D10G
T5 sequence: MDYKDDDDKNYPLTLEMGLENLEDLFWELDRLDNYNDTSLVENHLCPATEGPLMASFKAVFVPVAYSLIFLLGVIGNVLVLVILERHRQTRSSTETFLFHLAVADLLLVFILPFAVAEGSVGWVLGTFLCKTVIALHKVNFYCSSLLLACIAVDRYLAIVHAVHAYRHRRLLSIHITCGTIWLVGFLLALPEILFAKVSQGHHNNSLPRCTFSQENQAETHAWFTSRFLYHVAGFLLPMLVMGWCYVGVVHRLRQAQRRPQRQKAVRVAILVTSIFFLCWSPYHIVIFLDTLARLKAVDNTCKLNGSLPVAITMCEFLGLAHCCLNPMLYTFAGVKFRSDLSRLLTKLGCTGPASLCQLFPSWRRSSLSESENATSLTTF
The description is as above. How it is done: as §1

The next assay deals with T6, XC277 (human, UniProt P32302 2-372).
T6 construct: also called hCXCR5 SI(insertion)
T6 sequence: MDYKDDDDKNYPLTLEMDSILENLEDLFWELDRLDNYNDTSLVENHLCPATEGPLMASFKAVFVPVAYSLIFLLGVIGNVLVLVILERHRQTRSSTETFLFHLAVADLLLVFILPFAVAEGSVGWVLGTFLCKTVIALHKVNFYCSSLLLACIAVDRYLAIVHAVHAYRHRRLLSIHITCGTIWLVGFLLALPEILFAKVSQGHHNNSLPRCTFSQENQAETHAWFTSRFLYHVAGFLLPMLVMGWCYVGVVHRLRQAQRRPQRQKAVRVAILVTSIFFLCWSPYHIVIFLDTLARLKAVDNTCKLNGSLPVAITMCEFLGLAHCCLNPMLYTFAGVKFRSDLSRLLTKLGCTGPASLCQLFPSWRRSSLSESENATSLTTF
Described as above. How it is done: as §1

B1: Afucosyl humanized 11G2 154/155 (antibody, human IgG1, kappa, V domains shown)
VH: EVQLVESGGGLVQPGGSLRLSCAASGFTFTDFYMSWVRQAPGKGLEWVGFIRNKANGYTTEYSASVKGRFTISRDNAKNSLYLQMNSLRAEDTAVYYCARVYGSTLHYWGQGTLVTVSS
VL: DIQMTQSPSSLSASVGDRVTITCRASESVEYHGTSLMHWYQQKPGKAPKLLIYAASNVESGVPSRFSGSGSGTDFTLTISSLQPEDFATYYCQQSRKVPWTFGQGTKVEIKR
modifications: afucosylated Fc glycan (Asn297)
notes: also called afucosyl h11G2 XC154/XC155; afucosylated h11G2 VL XC154/VH XC155
Turning to B1, the binding result with rat CXCR5 ortholog was “no binding”; with rabbit CXCR5 ortholog, “no binding”; with XC281, “no binding (tested: 1 or 3 µg/ml (not on the sheet))”. For the same molecule, the “ADCC (EC50, pM)” value in the assay with human CXCR5 stood at 2.38 pM.

B2: 2C9 (reference antibody) (antibody, human IgG1, kappa, V domains shown)
VH: EVQLVESGGGLVKPGGSLRLSCAASGFTFSTNAMNWVRQAPGKGLERVARIRSKSNNYATYYADSVKDRFTISRDDSKNTLYLQMNSLKTEDTAVYYCVTMIPFAYWGQGTLVTVSS
VL: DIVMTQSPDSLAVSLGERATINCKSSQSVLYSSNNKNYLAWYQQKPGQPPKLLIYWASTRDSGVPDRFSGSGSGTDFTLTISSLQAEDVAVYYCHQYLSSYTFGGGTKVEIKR
notes: fucosylated
As for B2, the binding result in the assay with XC276 and with XC277 was “no binding (tested: 1 or 3 µg/ml (not on the sheet))” in each case.
